Measured values: the MegaScale stability set (Tsuboyama et al. 2023)

B1: 2M8U (parent)
chain: TKAQVIEAFKVFDRDGNGYVTVDYLRKVLNELGDMMPADEIEEMIYEADPQNSGYVQYETFVGMLFL

Variants of: B1
Assay: folding stability dG (cDNA display proteolysis); higher = more stable
Conditions: PBS, room temperature

| Variant | folding stability dG [kcal/mol] |
| --- | --- |
| TKAQVIEASKVFDRDGNGYVTVDYLRKVLNELGDMMPADEIEEMIYEADPQNSGYVQYETFVGMLFL [F9S] | 2.13 |
| TKAQVIEAWKVFDRDGNGYVTVDYLRKVLNELGDMMPADEIEEMIYEADPQNSGYVQYETFVGMLFL [F9W] | 1.95 |
| TKAQVIEARKVFDRDGNGYVTVDYLRKVLNELGDMMPADEIEEMIYEADPQNSGYVQYETFVGMLFL [F9R] | 1.98 |
| TKAQVIEAVKVFDRDGNGYVTVDYLRKVLNELGDMMPADEIEEMIYEADPQNSGYVQYETFVGMLFL [F9V] | 3.27 |
| TKAQVIEAQKVFDRDGNGYVTVDYLRKVLNELGDMMPADEIEEMIYEADPQNSGYVQYETFVGMLFL [F9Q] | 2.08 |
| TKAQVIEAYKVFDRDGNGYVTVDYLRKVLNELGDMMPADEIEEMIYEADPQNSGYVQYETFVGMLFL [F9Y] | 2.1 |
| TKAQVIEATKVFDRDGNGYVTVDYLRKVLNELGDMMPADEIEEMIYEADPQNSGYVQYETFVGMLFL [F9T] | 2.47 |
| TKAQVIEAFNVFDRDGNGYVTVDYLRKVLNELGDMMPADEIEEMIYEADPQNSGYVQYETFVGMLFL [K10N] | 2.74 |
| TKAQVIEAFDVFDRDGNGYVTVDYLRKVLNELGDMMPADEIEEMIYEADPQNSGYVQYETFVGMLFL [K10D] | 2.26 |
| TKAQVIEAFLVFDRDGNGYVTVDYLRKVLNELGDMMPADEIEEMIYEADPQNSGYVQYETFVGMLFL [K10L] | 3.25 |
| TKAQVIEAFIVFDRDGNGYVTVDYLRKVLNELGDMMPADEIEEMIYEADPQNSGYVQYETFVGMLFL [K10I] | 3.32 |
| TKAQVIEAFTVFDRDGNGYVTVDYLRKVLNELGDMMPADEIEEMIYEADPQNSGYVQYETFVGMLFL [K10T] | 2.77 |
| TKAQVIEAFWVFDRDGNGYVTVDYLRKVLNELGDMMPADEIEEMIYEADPQNSGYVQYETFVGMLFL [K10W] | 3.01 |
| TKAQVIEAFCVFDRDGNGYVTVDYLRKVLNELGDMMPADEIEEMIYEADPQNSGYVQYETFVGMLFL [K10C] | 3.51 |
| TKAQVIEAFAVFDRDGNGYVTVDYLRKVLNELGDMMPADEIEEMIYEADPQNSGYVQYETFVGMLFL [K10A] | 3.13 |
| TKAQVIEAFQVFDRDGNGYVTVDYLRKVLNELGDMMPADEIEEMIYEADPQNSGYVQYETFVGMLFL [K10Q] | 3.16 |
| TKAQVIEAFVVFDRDGNGYVTVDYLRKVLNELGDMMPADEIEEMIYEADPQNSGYVQYETFVGMLFL [K10V] | 3.17 |
| TKAQVIEAFGVFDRDGNGYVTVDYLRKVLNELGDMMPADEIEEMIYEADPQNSGYVQYETFVGMLFL [K10G] | 2.97 |
| TKAQVIEAFSVFDRDGNGYVTVDYLRKVLNELGDMMPADEIEEMIYEADPQNSGYVQYETFVGMLFL [K10S] | 2.86 |
| TKAQVIEAFRVFDRDGNGYVTVDYLRKVLNELGDMMPADEIEEMIYEADPQNSGYVQYETFVGMLFL [K10R] | 3.46 |
| TKAQVIEAFEVFDRDGNGYVTVDYLRKVLNELGDMMPADEIEEMIYEADPQNSGYVQYETFVGMLFL [K10E] | 3.02 |
| TKAQVIEAFPVFDRDGNGYVTVDYLRKVLNELGDMMPADEIEEMIYEADPQNSGYVQYETFVGMLFL [K10P] | 2.08 |
| TKAQVIEAFYVFDRDGNGYVTVDYLRKVLNELGDMMPADEIEEMIYEADPQNSGYVQYETFVGMLFL [K10Y] | 2.79 |
| TKAQVIEAFHVFDRDGNGYVTVDYLRKVLNELGDMMPADEIEEMIYEADPQNSGYVQYETFVGMLFL [K10H] | 2.88 |
| TKAQVIEAFMVFDRDGNGYVTVDYLRKVLNELGDMMPADEIEEMIYEADPQNSGYVQYETFVGMLFL [K10M] | 3.15 |
| TKAQVIEAFFVFDRDGNGYVTVDYLRKVLNELGDMMPADEIEEMIYEADPQNSGYVQYETFVGMLFL [K10F] | 3.21 |
| TKAQVIEAFKVFHRDGNGYVTVDYLRKVLNELGDMMPADEIEEMIYEADPQNSGYVQYETFVGMLFL [D13H] | 1.95 |

| Variant | folding stability dG [kcal/mol] |
| --- | --- |
| TKAQVIEAFKVFIRDGNGYVTVDYLRKVLNELGDMMPADEIEEMIYEADPQNSGYVQYETFVGMLFL [D13I] | 2.4 |
| TKAQVIEAFKVFCRDGNGYVTVDYLRKVLNELGDMMPADEIEEMIYEADPQNSGYVQYETFVGMLFL [D13C] | 3.16 |
| TKAQVIEAFKVFSRDGNGYVTVDYLRKVLNELGDMMPADEIEEMIYEADPQNSGYVQYETFVGMLFL [D13S] | 1.57 |
| TKAQVIEAFKVFFRDGNGYVTVDYLRKVLNELGDMMPADEIEEMIYEADPQNSGYVQYETFVGMLFL [D13F] | 2.65 |
| TKAQVIEAFKVFLRDGNGYVTVDYLRKVLNELGDMMPADEIEEMIYEADPQNSGYVQYETFVGMLFL [D13L] | 2.6 |
| TKAQVIEAFKVFNRDGNGYVTVDYLRKVLNELGDMMPADEIEEMIYEADPQNSGYVQYETFVGMLFL [D13N] | 1.76 |
| TKAQVIEAFKVFRRDGNGYVTVDYLRKVLNELGDMMPADEIEEMIYEADPQNSGYVQYETFVGMLFL [D13R] | 1.21 |
| TKAQVIEAFKVFERDGNGYVTVDYLRKVLNELGDMMPADEIEEMIYEADPQNSGYVQYETFVGMLFL [D13E] | 2.11 |
| TKAQVIEAFKVFMRDGNGYVTVDYLRKVLNELGDMMPADEIEEMIYEADPQNSGYVQYETFVGMLFL [D13M] | 2.39 |
| TKAQVIEAFKVFTRDGNGYVTVDYLRKVLNELGDMMPADEIEEMIYEADPQNSGYVQYETFVGMLFL [D13T] | 2.06 |
| TKAQVIEAFKVFARDGNGYVTVDYLRKVLNELGDMMPADEIEEMIYEADPQNSGYVQYETFVGMLFL [D13A] | 1.97 |
| TKAQVIEAFKVFKRDGNGYVTVDYLRKVLNELGDMMPADEIEEMIYEADPQNSGYVQYETFVGMLFL [D13K] | 1.39 |
| TKAQVIEAFKVFGRDGNGYVTVDYLRKVLNELGDMMPADEIEEMIYEADPQNSGYVQYETFVGMLFL [D13G] | 1.79 |
| TKAQVIEAFKVFPRDGNGYVTVDYLRKVLNELGDMMPADEIEEMIYEADPQNSGYVQYETFVGMLFL [D13P] | 1.49 |
| TKAQVIEAFKVFQRDGNGYVTVDYLRKVLNELGDMMPADEIEEMIYEADPQNSGYVQYETFVGMLFL [D13Q] | 1.87 |
| TKAQVIEAFKVADRDGNGYVTVDYLRKVLNELGDMMPADEIEEMIYEADPQNSGYVQYETFVGMLFL [F12A] | 3.36 |
| TKAQVIEAFKVCDRDGNGYVTVDYLRKVLNELGDMMPADEIEEMIYEADPQNSGYVQYETFVGMLFL [F12C] | 3.15 |
| TKAQVIEAFKVVDRDGNGYVTVDYLRKVLNELGDMMPADEIEEMIYEADPQNSGYVQYETFVGMLFL [F12V] | 3.03 |
| TKAQVIEAFKVTDRDGNGYVTVDYLRKVLNELGDMMPADEIEEMIYEADPQNSGYVQYETFVGMLFL [F12T] | 2.39 |
| TKAQVIEAFKVPDRDGNGYVTVDYLRKVLNELGDMMPADEIEEMIYEADPQNSGYVQYETFVGMLFL [F12P] | 1.89 |
| TKAQVIEAFKVDDRDGNGYVTVDYLRKVLNELGDMMPADEIEEMIYEADPQNSGYVQYETFVGMLFL [F12D] | 2.69 |
| TKAQVIEAFKVMDRDGNGYVTVDYLRKVLNELGDMMPADEIEEMIYEADPQNSGYVQYETFVGMLFL [F12M] | 3.33 |
| TKAQVIEAFKVNDRDGNGYVTVDYLRKVLNELGDMMPADEIEEMIYEADPQNSGYVQYETFVGMLFL [F12N] | 3.06 |
| TKAQVIEAFKVEDRDGNGYVTVDYLRKVLNELGDMMPADEIEEMIYEADPQNSGYVQYETFVGMLFL [F12E] | 3.15 |
| TKAQVIEAFKVHDRDGNGYVTVDYLRKVLNELGDMMPADEIEEMIYEADPQNSGYVQYETFVGMLFL [F12H] | 3.24 |
| TKAQVIEAFKVSDRDGNGYVTVDYLRKVLNELGDMMPADEIEEMIYEADPQNSGYVQYETFVGMLFL [F12S] | 2.68 |
| TKAQVIEAFKVQDRDGNGYVTVDYLRKVLNELGDMMPADEIEEMIYEADPQNSGYVQYETFVGMLFL [F12Q] | 3.12 |

| Variant | folding stability dG [kcal/mol] |
| --- | --- |
| TKAQVIEAFKVIDRDGNGYVTVDYLRKVLNELGDMMPADEIEEMIYEADPQNSGYVQYETFVGMLFL [F12I] | 3.04 |
| TKAQVIEAFKVWDRDGNGYVTVDYLRKVLNELGDMMPADEIEEMIYEADPQNSGYVQYETFVGMLFL [F12W] | 3.32 |
| TKAQVIEAFKVYDRDGNGYVTVDYLRKVLNELGDMMPADEIEEMIYEADPQNSGYVQYETFVGMLFL [F12Y] | 3.71 |
| TKAQVIEAFKVKDRDGNGYVTVDYLRKVLNELGDMMPADEIEEMIYEADPQNSGYVQYETFVGMLFL [F12K] | 2.54 |
| TKAQVIEAFKVLDRDGNGYVTVDYLRKVLNELGDMMPADEIEEMIYEADPQNSGYVQYETFVGMLFL [F12L] | 3.08 |
| TKAQVIEAFKVRDRDGNGYVTVDYLRKVLNELGDMMPADEIEEMIYEADPQNSGYVQYETFVGMLFL [F12R] | 2.48 |
| TKAQVIEAFKVGDRDGNGYVTVDYLRKVLNELGDMMPADEIEEMIYEADPQNSGYVQYETFVGMLFL [F12G] | 3.5 |
| TKAQVIEAFKSFDRDGNGYVTVDYLRKVLNELGDMMPADEIEEMIYEADPQNSGYVQYETFVGMLFL [V11S] | 3.56 |
| TKAQVIEAFKYFDRDGNGYVTVDYLRKVLNELGDMMPADEIEEMIYEADPQNSGYVQYETFVGMLFL [V11Y] | 3.07 |
| TKAQVIEAFKMFDRDGNGYVTVDYLRKVLNELGDMMPADEIEEMIYEADPQNSGYVQYETFVGMLFL [V11M] | 3.24 |
| TKAQVIEAFKGFDRDGNGYVTVDYLRKVLNELGDMMPADEIEEMIYEADPQNSGYVQYETFVGMLFL [V11G] | 3.28 |
| TKAQVIEAFKHFDRDGNGYVTVDYLRKVLNELGDMMPADEIEEMIYEADPQNSGYVQYETFVGMLFL [V11H] | 3.32 |
| TKAQVIEAFKFFDRDGNGYVTVDYLRKVLNELGDMMPADEIEEMIYEADPQNSGYVQYETFVGMLFL [V11F] | 3.01 |
| TKAQVIEAFKCFDRDGNGYVTVDYLRKVLNELGDMMPADEIEEMIYEADPQNSGYVQYETFVGMLFL [V11C] | 3.39 |
| TKAQVIEAFKKFDRDGNGYVTVDYLRKVLNELGDMMPADEIEEMIYEADPQNSGYVQYETFVGMLFL [V11K] | 3.72 |
| TKAQVIEAFKRFDRDGNGYVTVDYLRKVLNELGDMMPADEIEEMIYEADPQNSGYVQYETFVGMLFL [V11R] | 3.63 |
| TKAQVIEAFKWFDRDGNGYVTVDYLRKVLNELGDMMPADEIEEMIYEADPQNSGYVQYETFVGMLFL [V11W] | 3.05 |
| TKAQVIEAFKNFDRDGNGYVTVDYLRKVLNELGDMMPADEIEEMIYEADPQNSGYVQYETFVGMLFL [V11N] | 3.51 |
| TKAQVIEAFKQFDRDGNGYVTVDYLRKVLNELGDMMPADEIEEMIYEADPQNSGYVQYETFVGMLFL [V11Q] | 3.65 |
| TKAQVIEAFKLFDRDGNGYVTVDYLRKVLNELGDMMPADEIEEMIYEADPQNSGYVQYETFVGMLFL [V11L] | 3.44 |
| TKAQVIEAFKEFDRDGNGYVTVDYLRKVLNELGDMMPADEIEEMIYEADPQNSGYVQYETFVGMLFL [V11E] | 3.52 |
| TKAQVIEAFKAFDRDGNGYVTVDYLRKVLNELGDMMPADEIEEMIYEADPQNSGYVQYETFVGMLFL [V11A] | 3.77 |
| TKAQVIEAFKIFDRDGNGYVTVDYLRKVLNELGDMMPADEIEEMIYEADPQNSGYVQYETFVGMLFL [V11I] | 3.38 |
| TKAQVIEAFKPFDRDGNGYVTVDYLRKVLNELGDMMPADEIEEMIYEADPQNSGYVQYETFVGMLFL [V11P] | 3.14 |
| TKAQVIEAFKDFDRDGNGYVTVDYLRKVLNELGDMMPADEIEEMIYEADPQNSGYVQYETFVGMLFL [V11D] | 3.13 |
| TKAQVIEAFKTFDRDGNGYVTVDYLRKVLNELGDMMPADEIEEMIYEADPQNSGYVQYETFVGMLFL [V11T] | 3.35 |
